Measured values from patent US20220267369A1.

How the values were obtained:
[1] = target: Protein A ligand of MabSelect Sure resin (GE Healthcare, Chicago, IL); assay: separation factor on Protein A MabSelect Sure against mAb1; Equil/wash: 10 mM NaPhosphate, pH 6.5
[2] = target: Protein A ligand of MabSelect Sure resin (GE Healthcare, Chicago, IL); assay: separation factor on Protein A MabSelect Sure against mAb1; Strip: 100 mM acetic acid
[3] = target: Protein A ligand of MabSelect Sure resin (GE Healthcare, Chicago, IL); assay: separation factor on Protein A MabSelect Sure against mAb1; Elute: 20 mM NaAcetate, pH 3.5
[4] = target: Protein A ligand of MabSelect Sure resin (GE Healthcare, Chicago, IL); assay: separation factor on Protein A MabSelect Sure against mAb2; High salt wash: 10 mM NaPhosphate, pH 6.5, 0.5M NaCl
[5] = target: Protein A ligand of MabSelect Sure resin (GE Healthcare, Chicago, IL); assay: resin slurry plate partitioning on Protein A MabSelect Sure; Strip: 100 mM acetic acid
[6] = target: Protein A ligand of MabSelect Sure resin (GE Healthcare, Chicago, IL); assay: resin slurry plate partitioning on Protein A MabSelect Sure; High salt wash: 10 mM NaPhosphate, pH 6.5, 0.5M NaCl
[7] = target: Protein A ligand of MabSelect Sure resin (GE Healthcare, Chicago, IL); assay: separation factor on Protein A MabSelect Sure against mAb2; Elute: 20 mM NaAcetate, pH 3.5
[8] = target: Protein A ligand of MabSelect Sure resin (GE Healthcare, Chicago, IL); assay: resin slurry plate partitioning on Protein A MabSelect Sure; Equil/wash: 10 mM NaPhosphate, pH 6.5
[9] = target: Protein A ligand of MabSelect Sure resin (GE Healthcare, Chicago, IL); assay: separation factor on Protein A MabSelect Sure against mAb2; Strip: 100 mM acetic acid
[10] = target: Protein A ligand of MabSelect Sure resin (GE Healthcare, Chicago, IL); assay: resin slurry plate partitioning on Protein A MabSelect Sure; Elute: 20 mM NaAcetate, pH 3.5
[11] = target: Protein A ligand of MabSelect Sure resin (GE Healthcare, Chicago, IL); assay: separation factor on Protein A MabSelect Sure against mAb1; High salt wash: 10 mM NaPhosphate, pH 6.5, 0.5M NaCl
[12] = target: Protein A ligand of MabSelect Sure resin (GE Healthcare, Chicago, IL); assay: separation factor on protein A resin against mAb3, loading condition
[13] = target: Protein A ligand of MabSelect Sure resin (GE Healthcare, Chicago, IL); assay: separation factor on Protein A MabSelect Sure against mAb2; Equil/wash: 10 mM NaPhosphate, pH 6.5

Substance: phospholipase B-like 2 (PLBL2) (enzyme)
- log α (log KP PLBL2 - log KP mAb1) [1]: -2
- log α (log KP PLBL2 - log KP mAb1) [2]: 0
- log α (log KP PLBL2 - log KP mAb1) [3]: 0
- log α (log KP PLBL2 - log KP mAb2) [4]: -2
- log KP (partition coefficient, bound/free on resin) [5]: 0
- log KP (partition coefficient, bound/free on resin) [6]: 0
- log α (log KP PLBL2 - log KP mAb2) [7]: -0.3
- log KP (partition coefficient, bound/free on resin) [8]: 0
- log α (log KP PLBL2 - log KP mAb2) [9]: 0
- log KP (partition coefficient, bound/free on resin) [10]: 0
- log α (log KP PLBL2 - log KP mAb1) [11]: -2
- log α (log KP PLBL2 - log KP mAb3) [12]: -2
- log α (log KP PLBL2 - log KP mAb2) [13]: -2
